molecular target: NS2 (recombinant) (Hepatitis C virus JFH1 (genotype 2a), UniProt Q99IB8 814-1030); assay: ELONA; binding retained with excess yeast tRNA; ELONA: biotin-aptamer on streptavidin plates, protein 30 min at 37 C; washes PBS, 1 mM MgCl2, 0.1% BSA, 0.05% Tween-20; pH not stated; conditions: tags: N-terminal His (pET-28b), label: biotin
Sequence (Q99IB8 814-1030): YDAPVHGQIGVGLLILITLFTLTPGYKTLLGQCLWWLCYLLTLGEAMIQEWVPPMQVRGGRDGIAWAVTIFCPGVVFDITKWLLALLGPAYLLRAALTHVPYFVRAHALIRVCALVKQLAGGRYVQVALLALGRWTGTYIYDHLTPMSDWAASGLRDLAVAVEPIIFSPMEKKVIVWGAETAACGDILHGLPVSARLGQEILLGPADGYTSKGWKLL

Binding result, binds:
CAGGTACCACCTTCATGGGCGCGGAAGACGATGGTGTACTA (ssDNA) [aptamer NS2-2]
ACGGGGCAGGATTGTCCCCGCGCCTGGTTGAAGGTAGTCGC (ssDNA) [aptamer NS2-3]
CTGGATCGAAAAGTATCCACGTTTGTCTGAAAATAGTGGCC (ssDNA) [aptamer NS2-1]

— paper PMC3938669, “Inhibition of Hepatitis C Virus Infection by DNA Aptamer against NS2 Protein”
